The values below are quoted from earlier work in PMC11061240.

One may read the Kd as the equilibrium constant for the complex coming apart.

Like-named read-outs stand apart in the source and are kept apart here.

In data set [1] the target is FGL1 (UniProt Q08830). In words: BLI.
The target of data set [2] is α-synuclein preformed fibrils (UniProt P37840).
Data set [3] addresses FGL1 (UniProt Q08830).

UniProt Q08830, sequence (Q08830 23-312): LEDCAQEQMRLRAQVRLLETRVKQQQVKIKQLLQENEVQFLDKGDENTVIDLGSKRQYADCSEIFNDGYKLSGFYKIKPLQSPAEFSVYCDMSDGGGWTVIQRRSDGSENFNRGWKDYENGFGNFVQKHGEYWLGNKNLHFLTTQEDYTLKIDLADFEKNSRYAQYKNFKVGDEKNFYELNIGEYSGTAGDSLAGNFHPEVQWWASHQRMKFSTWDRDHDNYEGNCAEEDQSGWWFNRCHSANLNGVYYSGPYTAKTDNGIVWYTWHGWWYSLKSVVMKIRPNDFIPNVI

Regarding LAG3 ECD (from UniProt Q61790), the Kd with FGL1 [1] is 1.5 nM. On to LAG3 (from UniProt P18627), for which the Kd in data set [2] was 80 nM; in the data set with FGL1 [3] it was 7000 nM.
